Assay results reported in US9115185.

Columns and labels:
[1] = target: HLA-DR2 (DRB1*0201 [sic]), purified from B-lymphoblastic cell line IWB (human); test: competition with fluorescent HA 308-319 on purified HLA-DR2
[2] = target: T1, HLA-DR3 (DRB*0301), purified from B-lymphoblastic cell line HAR (human); test: competition with fluorescent hsp65 3-13 on purified HLA-DR3
T1 chain: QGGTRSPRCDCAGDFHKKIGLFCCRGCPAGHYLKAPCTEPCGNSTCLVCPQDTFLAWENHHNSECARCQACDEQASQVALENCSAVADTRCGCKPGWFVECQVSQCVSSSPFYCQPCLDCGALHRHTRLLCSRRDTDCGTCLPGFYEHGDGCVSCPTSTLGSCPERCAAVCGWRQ

[3] = target: HLA-DR1 (DRB*0101), purified from B-lymphoblastic cell line LG2.1 (human); test: competition with fluorescent HA 308-319 on purified HLA-DR1
[4] = target: HLA-DR4 (DRB*0401), purified from B-lymphoblastic cell line BSM (human); test: competition with fluorescent HA308-319 Y→F on purified HLA-DR4
[5] = target: HLA-DR7 (DRB1*0701), purified from B-lymphoblastic cell line Pitout (human); test: competition with fluorescent Ii 80-103 on purified HLA-DR7

B1: HPV16 E7 peptide 41-62, P03129 41-62 (peptide)
peptide: PAGQAEPDRAHYNIVTFCCKCD
modifications: not checked
IC50 [1]: 50 µM
IC50 [2]: 55 µM
IC50 [3]: 7.4 µM
IC50 [4]: 38 µM

B2: HPV16 E7 peptide 51-72, P03129 51-72 (peptide)
peptide: HYNIVTFCCKCDSTLRLCVQST
modifications: not checked
IC50 [2]: 50 µM
IC50 [5]: 11 µM
IC50 [3]: 70 µM

B3: HPV16 E2 peptide 301-330 (peptide)
peptide: LRYRFKKHCTLYTAVSSTWHWTGHNVKHKS
modifications: not checked
IC50 [4]: 10 µM

B4: HPV16 E2 peptide 316-345 (peptide)
peptide: SSTWHWTGHNVKHKSAIVTLTYDSEWQRDQ
modifications: not checked
IC50 [2]: 30 µM

B5: HPV16 E7 peptide 21-42, P03129 21-42 (peptide)
peptide: DLYCYEQLNDSSEEEDEIDGPA
modifications: not checked
IC50 [1]: 12 µM

B6: HPV16 E7 peptide 61-82, P03129 61-82 (peptide)
peptide: CDSTLRLCVQSTHVDIRTLEDL
modifications: not checked
IC50 [1]: 15 µM
IC50 [2]: 65 µM

B7: HPV16 E7 peptide 71-92, P03129 71-92 (peptide)
peptide: STHVDIRTLEDLLMGTLGIVCP
modifications: not checked
IC50 [1]: 2 µM
IC50 [3]: 12 µM

B8: HPV16 E2 peptide 271-300 (peptide)
peptide: FNSSHKGRINCNSNTTPIVHLKGDANTLKC
modifications: not checked
IC50 [2]: 37 µM

B9: HPV16 E7 peptide 77-98, P03129 77-98 (peptide)
peptide: RTLEDLLMGTLGIVCPICSQKP
modifications: not checked
IC50 [1]: 22 µM
IC50 [5]: 0.9 µM
IC50 [3]: 46 µM

B10: HPV16 E7 peptide 11-32, P03129 11-32 (peptide)
peptide: YMLDLQPETTDLYCYEQLNDSS
modifications: not checked
IC50 [2]: 50 µM

B11: HPV16 E7 peptide 1-22, P03129 1-22 (peptide)
peptide: MHGDTPTLHEYMLDLQPETTDL
modifications: not checked
IC50 [1]: 10 µM
IC50 [2]: 0.8 µM
IC50 [5]: 7 µM
IC50 [4]: 30 µM

B12: HPV16 E2 peptide 331-365 (peptide)
peptide: AIVTLTYDSEWQRDQFLSQVKIPKTITVSTGFMSI
modifications: not checked
IC50 [2]: 10 µM
IC50 [4]: 15 µM
